The numbers were not newly measured in publication PMC5012295, which cites them from elsewhere.

The data set concerns the target Complement C4b (Homo sapiens) (UniProt P0C0L4). As to the kind of experiment: AlphaScreen. A general note: In Alpha technology, singlet oxygen from a donor bead excites a nearby acceptor bead.
Chain of UniProt P0C0L4 (P0C0L4 20-675, chain 1 of 2): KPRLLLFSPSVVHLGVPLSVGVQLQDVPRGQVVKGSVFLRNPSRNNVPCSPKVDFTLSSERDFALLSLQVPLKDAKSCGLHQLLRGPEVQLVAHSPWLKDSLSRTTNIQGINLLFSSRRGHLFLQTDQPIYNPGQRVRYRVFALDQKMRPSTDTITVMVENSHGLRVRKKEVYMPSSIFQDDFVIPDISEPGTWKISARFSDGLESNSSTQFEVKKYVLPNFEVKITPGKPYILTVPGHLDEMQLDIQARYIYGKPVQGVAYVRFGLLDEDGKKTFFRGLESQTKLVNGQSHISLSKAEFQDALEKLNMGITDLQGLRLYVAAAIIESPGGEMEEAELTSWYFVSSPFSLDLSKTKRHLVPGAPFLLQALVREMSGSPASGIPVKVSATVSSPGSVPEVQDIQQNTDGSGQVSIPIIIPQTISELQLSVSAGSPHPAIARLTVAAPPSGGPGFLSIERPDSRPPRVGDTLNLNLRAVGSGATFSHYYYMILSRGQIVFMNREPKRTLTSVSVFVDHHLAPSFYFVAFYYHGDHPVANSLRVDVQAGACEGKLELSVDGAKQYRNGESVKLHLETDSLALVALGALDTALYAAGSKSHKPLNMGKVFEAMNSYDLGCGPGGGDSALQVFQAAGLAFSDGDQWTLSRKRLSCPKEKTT
Chain of UniProt P0C0L4 (P0C0L4 20-675, chain 2 of 2): as the sequence (P0C0L4 20-675, chain 1 of 2) above

As to Eap34 domains 3-4 (from UniProt Q99QS1), the Kd – broadly, the concentration at which binding is half-saturated – was 0.525 µM. Turning to Eap (from UniProt Q99QS1), the Kd was 0.185 µM.
